Holding throughout (assay): cell-based or functional assay
Assay [1] has as its target PIF3:GAD fusion protein (PIF3-GAL4-activation-domain fusion) (Arabidopsis) (UniProt O80536).
In assay [2] the target is GAD, GAL4-activation domain alone (UniProt P04386).
The target of assay [3] is T1, PIF3:GAD fusion protein (PIF3-GAL4-activation-domain fusion) (Arabidopsis, UniProt O80536 1-524, limits assumed).
T1 sequence: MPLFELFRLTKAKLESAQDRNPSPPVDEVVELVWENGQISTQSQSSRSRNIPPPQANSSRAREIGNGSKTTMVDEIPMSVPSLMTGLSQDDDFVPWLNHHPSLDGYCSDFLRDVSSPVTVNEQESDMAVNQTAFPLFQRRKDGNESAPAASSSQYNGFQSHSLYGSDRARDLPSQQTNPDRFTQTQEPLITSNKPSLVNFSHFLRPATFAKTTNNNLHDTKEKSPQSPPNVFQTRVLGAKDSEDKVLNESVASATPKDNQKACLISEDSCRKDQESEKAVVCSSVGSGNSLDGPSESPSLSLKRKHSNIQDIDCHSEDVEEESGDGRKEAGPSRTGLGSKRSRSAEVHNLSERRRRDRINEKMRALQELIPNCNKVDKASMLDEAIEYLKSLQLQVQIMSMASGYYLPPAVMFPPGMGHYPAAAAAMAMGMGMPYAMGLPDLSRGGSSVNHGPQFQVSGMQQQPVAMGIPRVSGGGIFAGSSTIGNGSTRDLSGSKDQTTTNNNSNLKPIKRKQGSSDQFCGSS

These results are taken from patent publication US20030082809A1 (University of California, published 2003).

Sequence of GAD, GAL4-activation domain alone (P04386 768-881 limits assumed): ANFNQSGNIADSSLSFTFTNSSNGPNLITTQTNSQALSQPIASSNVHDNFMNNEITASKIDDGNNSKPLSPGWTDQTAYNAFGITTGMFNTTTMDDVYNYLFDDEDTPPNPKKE

In the case of “phyB(NT):GBD fusion protein, Pr form (PCB chromophore, in darkness or after far-red light) (from UniProt P14713 1-621; P04386 1-147)”, in assay [1], the LacZ activity (M. U.), yeast two-hybrid liquid assay, Dark was determined as 0.1 M. U and the LacZ activity (M. U.), yeast two-hybrid liquid assay, Rp/FRp (red pulse followed at once by far-red pulse) was 0.1 M. U.

In assay [2], “GBD, GAL4 DNA-binding domain alone (from UniProt P04386 1-147)” returned a LacZ activity (M. U.), yeast two-hybrid liquid assay, Dark of 0.1 M. U; a LacZ activity (M. U.), yeast two-hybrid liquid assay, Rp of 0.2 M. U; a LacZ activity (M. U.), yeast two-hybrid liquid assay, Rp/FRp of 0.2 M. U.

B1: phyB(NT):GBD fusion protein, Pfr form (PCB chromophore, after red light) (other, UniProt P14713 1-621, looked up)
chain: MVSGVGGSGGGRGGGRGGEEEPSSSHTPNNRRGGEQAQSSGTKSLRPRSNTESMSKAIQQYTVDARLHAVFEQSGESGKSFDYSQSLKTTTYGSSVPEQQITAYLSRIQRGGYIQPFGCMIAVDESSFRIIGYSENAREMLGIMPQSVPTLEKPEILAMGTDVRSLFTSSSSILLERAFVAREITLLNPVWIHSKNTGKPFYAILHRIDVGVVIDLEPARTEDPALSIAGAVQSQKLAVRAISQLQALPGGDIKLLCDTVVESVRDLTGYDRVMVYKFHEDEHGEVVAESKRDDLEPYIGLHYPATDIPQASRFLFKQNRVRMIVDCNATPVLVVQDDRLTQSMCLVGSTLRAPHGCHSQYMANMGSIASLAMAVIINGNEDDGSNVASGRSSMRLWGLVVCHHTSSRCIPFPLRYACEFLMQAFGLQLNMELQLALQMSEKRVLRTQTLLCDMLLRDSPAGIVTQSPSIMDLVKCDGAAFLYHGKYYPLGVAPSEVQIKDVVEWLLANHADSTGLSTDSLGDAGYPGAAALGDAVCGMAVAYITKRDFLFWFRSHTAKEIKWGGAKHHPEDKDDGQRMHPRSSFQAFLEVVKSRSQPWETAEMDAIHSLQLILRDSFKESMKLLSSIEQACDICRLKKLKCSKEKPKCAKCLKNNWECRYSPKTKRSPLTRAHLTEVESRLERLEQLFLLIFPREDLDMILKMDSLQDIKALLTGLFVQDNVNKDAVTDRLASVETDMPLTLRQHRISATSSSEESSNKGQRQLTVS
modifications: phycocyanobilin (PCB) chromophore attached to the phytochrome moiety (residue not stated); Pfr conformer after red light
As for B1, in assay [3], the “LacZ activity, fold induction 5 min after a 1 min saturating red-light pulse” value was found to be 2 fold; the “LacZ activity, fold induction 10 min after a 1 min saturating red-light pulse” value came to 4 fold; the “LacZ activity, fold induction 30 min after a 1 min saturating red-light pulse” value is 50 fold; the “induction of LacZ expression above background by a single red-light pulse” value was 1000 fold.
